Where a chain is given by its changes, count along the chain named. Names and notes keep the numbering of the source.
How the values were obtained:
[1] = biological target: T1, human TL1A extracellular domain with N-terminal HIS and FLAG tag (human, UniProt O95150 72-251); test: SPR Run 4, purified Ab captured on Protein A, TL1A 5 ug/mL, timepoint 44
T1 construct: the whole entry is named
T1 sequence: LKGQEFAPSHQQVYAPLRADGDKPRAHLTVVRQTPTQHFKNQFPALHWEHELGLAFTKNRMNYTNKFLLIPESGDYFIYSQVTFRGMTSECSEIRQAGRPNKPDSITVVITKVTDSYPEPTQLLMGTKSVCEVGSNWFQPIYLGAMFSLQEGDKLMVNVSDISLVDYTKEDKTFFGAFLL
Description: (§1) 1.5. Antibody expression and antigen binding as determined by SPR. Using a CM5 sensor chip (GE Healthcare) Protein A (Pierce) was coupled to the chip surface using an amine coupling kit (GE Healthcare). Protein A was coupled on flow cell 1 and 2 (or alternatively 3 and 4) using a BIACORE® T200. […] The amount of supernatant or purified protein (as well as the concentration) injected during the capture stage varied between runs and is specified in the header of the Tables 3-11. At the end of injection of the supernatant or purified antibody the change in response units was measured. This value was reported as Capture Level in Tables 3-11. […] The response units were measured prior to the end of the dissociation phase. […] The sensorgrams were double referenced (flow cell 2 is subtracted from flow cell 1 and a buffer blank). As there were a large number of antibody variants to screen, these were screened across different runs (Tables 3-11). […] A summary of the conditions used in each run is below:
(§2) 2.1. […] In some experiment the antibodies were purified using Protein A chromatography (See 1.4) and purified antibodies were used in BIACORE® (GE Healthcare) experiments.

[2] = biological target: T1, human TL1A extracellular domain with …; test: SPR Run 4, purified Ab captured on Protein A, TL1A 5 ug/mL, timepoint 220
Description: as §1, §2

[3] = biological target: T1, human TL1A extracellular domain with …; test: SPR Run 5, Ab from supernatant captured on Protein A, TL1A 5 ug/mL, timepoint 44
Description: as §1, §2

[4] = biological target: T1, human TL1A extracellular domain with …; test: SPR Run 5, Ab from supernatant captured on Protein A, TL1A 5 ug/mL, timepoint 220
Description: as §1, §2

B1: 320-315 (antibody, human IgG1, name in Kabat numbering, V domains shown)
VH: QVQLVQSGAEVKKPGASVKVSCKASGYTFTSYDINWVRQAPGQGLEWMGWLNPNSGNTGYAQKFQGRVTMTADRSTSTAYMELSSLRSEDTAVYYCAREVPETAAFEYWGQGTLVTVSS
VL: QSVLTQPPSVSGAPGQRVTISCTSSSSDIGAGLGVHWYQQLPGTAPKLLIEGYYNRPSGVPDRFSGSKSGTSASLTITGLLPEDEGDYYCLSYDGTLSALFGGGTKLTVLG
notes: human IgG1, lambda
[1]
  TL1A Binding Level (Early): 85 RU
[2]
  TL1A Binding Level (Late): 82 RU

B2: 320-421 (antibody, human IgG1, V domains shown)
VH: B1 VH with F29Y
VL: QSVLTQPPSVSGAPGQRVTISCTSSSSDIGAGLGVHWYQQLPGTAPKLLIEGYYNRPSGVPDRFSGSKSGTSASLTITGLLPEDEGDYYCQSYDGTLSALFGGGTKLTVL
notes: human IgG1, lambda; the other rows have T at 28 and F at 29, so F29Y is probably meant
[3]
  TL1A Binding Level (Early): 9 RU
[4]
  TL1A Binding Level (Late): 8 RU

B3: 320-342 (antibody, human IgG1, name in Kabat numbering, V domains shown)
VH: B1 VH
VL: B1 VL with L91Q, G95Q
notes: human IgG1, lambda
[1]
  TL1A Binding Level (Early): 152 RU
[2]
  TL1A Binding Level (Late): 139 RU

B4: 320-341 (antibody, human IgG1, name in Kabat numbering, V domains shown)
VH: B1 VH
VL: B1 VL with L91Q, G95S
notes: human IgG1, lambda
[1]
  TL1A Binding Level (Early): 149 RU
[2]
  TL1A Binding Level (Late): 135 RU

B5: 320-344 (antibody, human IgG1, name in Kabat numbering, V domains shown)
VH: B1 VH
VL: B1 VL with L91Q, G95H
notes: human IgG1, lambda
[1]
  TL1A Binding Level (Early): 117 RU
[2]
  TL1A Binding Level (Late): 87 RU

B6: 320-316 (antibody, human IgG1, name in Kabat numbering, V domains shown)
VH: B1 VH
VL: B1 VL with L91W
notes: human IgG1, lambda
[1]
  TL1A Binding Level (Early): 65 RU
[2]
  TL1A Binding Level (Late): 62 RU

B7: 320-319 (antibody, human IgG1, name in Kabat numbering, V domains shown)
VH: B1 VH
VL: B1 VL with L91Q, S92Q
notes: human IgG1, lambda
[1]
  TL1A Binding Level (Early): 18 RU
[2]
  TL1A Binding Level (Late): 14 RU

B8: 320-317 (antibody, human IgG1, name in Kabat numbering, V domains shown)
VH: B1 VH
VL: B1 VL with L91Y
notes: human IgG1, lambda
[1]
  TL1A Binding Level (Early): 86 RU
[2]
  TL1A Binding Level (Late): 83 RU

B9: 320-337 (antibody, human IgG1, name in Kabat numbering, V domains shown)
VH: B1 VH
VL: B1 VL with L91Q, D94L
notes: human IgG1, lambda
[1]
  TL1A Binding Level (Early): 21 RU
[2]
  TL1A Binding Level (Late): 15 RU

B10: 320-343 (antibody, human IgG1, name in Kabat numbering, V domains shown)
VH: B1 VH
VL: B1 VL with L91Q, G95D
notes: human IgG1, lambda
[1]
  TL1A Binding Level (Early): 121 RU
[2]
  TL1A Binding Level (Late): 90 RU

B11: 320-417 (antibody, human IgG1, name in Kabat numbering, V domains shown)
VH: B1 VH with F29H
VL: B1 VL with L91Q
notes: human IgG1, lambda
[3]
  TL1A Binding Level (Early): 9 RU
[4]
  TL1A Binding Level (Late): 8 RU

B12: 320-320 (antibody, human IgG1, name in Kabat numbering, V domains shown)
VH: B1 VH
VL: B1 VL with L91Q, S92D
notes: human IgG1, lambda
[1]
  TL1A Binding Level (Early): 31 RU
[2]
  TL1A Binding Level (Late): 17 RU

B13: 320-330 (antibody, human IgG1, name in Kabat numbering, V domains shown)
VH: B1 VH
VL: B1 VL with L91Q, Y93L
notes: human IgG1, lambda
[1]
  TL1A Binding Level (Early): 139 RU
[2]
  TL1A Binding Level (Late): 119 RU

B14: 320-327 (antibody, human IgG1, name in Kabat numbering, V domains shown)
VH: B1 VH
VL: B1 VL with L91Q, Y93Q
notes: human IgG1, lambda
[1]
  TL1A Binding Level (Early): 130 RU
[2]
  TL1A Binding Level (Late): 119 RU

B15: 320-429 (antibody, human IgG1, name in Kabat numbering, V domains shown)
VH: B1 VH with T30W
VL: B1 VL with L91Q
notes: human IgG1, lambda
[3]
  TL1A Binding Level (Early): 12 RU
[4]
  TL1A Binding Level (Late): 11 RU

B16: 320-419 (antibody, human IgG1, name in Kabat numbering, V domains shown)
VH: B1 VH with F29L
VL: B1 VL with L91Q
notes: human IgG1, lambda
[3]
  TL1A Binding Level (Early): 11 RU
[4]
  TL1A Binding Level (Late): 9 RU

B17: 320-333 (antibody, human IgG1, name in Kabat numbering, V domains shown)
VH: B1 VH
VL: B1 VL with L91Q, D94S
notes: human IgG1, lambda
[1]
  TL1A Binding Level (Early): 95 RU
[2]
  TL1A Binding Level (Late): 67 RU

B18: 320-340 (antibody, human IgG1, name in Kabat numbering, V domains shown)
VH: B1 VH
VL: B1 VL with L91Q, G95A
notes: human IgG1, lambda
[1]
  TL1A Binding Level (Early): 145 RU
[2]
  TL1A Binding Level (Late): 132 RU

B19: 320-422 (antibody, human IgG1, name in Kabat numbering, V domains shown)
VH: B1 VH with T30A
VL: B1 VL with L91Q
notes: human IgG1, lambda
[3]
  TL1A Binding Level (Early): 10 RU
[4]
  TL1A Binding Level (Late): 9 RU

B20: 320-346 (antibody, human IgG1, name in Kabat numbering, V domains shown)
VH: B1 VH
VL: B1 VL with L91Q, G95L
notes: human IgG1, lambda
[1]
  TL1A Binding Level (Early): 126 RU
[2]
  TL1A Binding Level (Late): 107 RU

B21: 320-424 (antibody, human IgG1, name in Kabat numbering, V domains shown)
VH: B1 VH with T30Q
VL: B1 VL with L91Q
notes: human IgG1, lambda
[3]
  TL1A Binding Level (Early): 11 RU
[4]
  TL1A Binding Level (Late): 10 RU

B22: 320-420 (antibody, human IgG1, name in Kabat numbering, V domains shown)
VH: B1 VH with F29W
VL: B1 VL with L91Q
notes: human IgG1, lambda
[3]
  TL1A Binding Level (Early): 11 RU
[4]
  TL1A Binding Level (Late): 10 RU

B23: 320-331 (antibody, human IgG1, name in Kabat numbering, V domains shown)
VH: B1 VH
VL: B1 VL with L91Q, Y93W
notes: human IgG1, lambda
[1]
  TL1A Binding Level (Early): 173 RU
[2]
  TL1A Binding Level (Late): 176 RU

B24: 320-426 (antibody, human IgG1, name in Kabat numbering, V domains shown)
VH: B1 VH with T30H
VL: B1 VL with L91Q
notes: human IgG1, lambda
[3]
  TL1A Binding Level (Early): 10 RU
[4]
  TL1A Binding Level (Late): 9 RU

B25: 320-423 (antibody, human IgG1, name in Kabat numbering, V domains shown)
VH: B1 VH with T30S
VL: B1 VL with L91Q
notes: human IgG1, lambda
[3]
  TL1A Binding Level (Early): 10 RU
[4]
  TL1A Binding Level (Late): 10 RU

B26: 320-431 (antibody, human IgG1, name in Kabat numbering, V domains shown)
VH: B1 VH with S31A
VL: B1 VL with L91Q
notes: human IgG1, lambda
[3]
  TL1A Binding Level (Early): 6 RU
[4]
  TL1A Binding Level (Late): 6 RU

B27: 320-332 (antibody, human IgG1, name in Kabat numbering, V domains shown)
VH: B1 VH
VL: B1 VL with L91Q, D94A
notes: human IgG1, lambda
[1]
  TL1A Binding Level (Early): 66 RU
[2]
  TL1A Binding Level (Late): 44 RU

B28: 320-428 (antibody, human IgG1, name in Kabat numbering, V domains shown)
VH: B1 VH with T30L
VL: B1 VL with L91Q
notes: human IgG1, lambda
[3]
  TL1A Binding Level (Early): 11 RU
[4]
  TL1A Binding Level (Late): 10 RU

B29: 320-425 (antibody, human IgG1, name in Kabat numbering, V domains shown)
VH: B1 VH with T30D
VL: B1 VL with L91Q
notes: human IgG1, lambda
[3]
  TL1A Binding Level (Early): 14 RU
[4]
  TL1A Binding Level (Late): 12 RU

B30: 320-325 (antibody, human IgG1, name in Kabat numbering, V domains shown)
VH: B1 VH
VL: B1 VL with L91Q, Y93A
notes: human IgG1, lambda
[1]
  TL1A Binding Level (Early): 95 RU
[2]
  TL1A Binding Level (Late): 83 RU

B31: 320-418 (antibody, human IgG1, name in Kabat numbering, V domains shown)
VH: B1 VH with F29K
VL: B1 VL with L91Q
notes: human IgG1, lambda
[3]
  TL1A Binding Level (Early): 10 RU
[4]
  TL1A Binding Level (Late): 9 RU

B32: 320-427 (antibody, human IgG1, name in Kabat numbering, V domains shown)
VH: B1 VH with T30K
VL: B1 VL with L91Q
notes: human IgG1, lambda
[3]
  TL1A Binding Level (Early): 11 RU
[4]
  TL1A Binding Level (Late): 10 RU

B33: 320-430 (antibody, human IgG1, name in Kabat numbering, V domains shown)
VH: B1 VH with T30Y
VL: B1 VL with L91Q
notes: human IgG1, lambda
[3]
  TL1A Binding Level (Early): 6 RU
[4]
  TL1A Binding Level (Late): 6 RU
